According to the Human Domainome abundance scans (Beltran et al. 2025):
± gives the uncertainty stated by the source.

B1: Segment polarity protein dishevelled homolog DVL-3, residues 2 to 81; numbered along this chain, Q92997 (parent)
chain: GETKIIYHLDGQETPYLVKLPLPAERVTLADFKGVLQRPSYKFFFKSMDDDFGVVKEEISDDNAKLPCFNGRVVSWLVSA

Variants of: B1
Test: abundance fitness (aPCA) (normalised: wild type 0, dead -1); higher = more abundant; growth selection in yeast, the domain comes from the species named
Conditions: Homo sapiens

Abundance fitness, by site and new letter:
V73: H -0.573 ± 0.12; Y -0.909 ± 0.15; K -1.01 ± 0.3; D -0.501 ± 0.1; W -0.589 ± 0.18; Q -0.477 ± 0.46; S -0.618 ± 0.088; R -0.592 ± 0.12; E -0.786 ± 0.24; C -0.347 ± 0.085; F -0.684 ± 0.089; N -0.569 ± 0.11; M -0.767 ± 0.26; I 0.147 ± 0.059; L -0.56 ± 0.1; G -0.681 ± 0.099; A -0.511 ± 0.12
S79: W -0.71 ± 0.11; Y -0.864 ± 0.18; G -0.287 ± 0.054; R -0.31 ± 0.055; A -0.206 ± 0.062; M -0.556 ± 0.1; K -0.204 ± 0.076; D 0.079 ± 0.065; I -0.652 ± 0.27; C -0.228 ± 0.083; T -0.179 ± 0.071; P 0.16 ± 0.069; L -0.67 ± 0.092; V -0.682 ± 0.087; Q -0.248 ± 0.098; H -0.466 ± 0.16; F -0.504 ± 0.16; E 0.002 ± 0.056
R72: S 0.149 ± 0.046; M 0.2 ± 0.1; C 0.222 ± 0.054; F 0.219 ± 0.052; P -1.04 ± 0.24; T 0.318 ± 0.06; L 0.216 ± 0.05; G -0.416 ± 0.079; H 0.183 ± 0.06; D -0.272 ± 0.077; I 0.269 ± 0.049; W 0.139 ± 0.093; A 0.163 ± 0.06; N 0.029 ± 0.063; K 0.102 ± 0.12; Q 0.243 ± 0.12
P67: Q -0.676 ± 0.21; R -0.544 ± 0.074; I -1.04 ± 0.28; A -0.841 ± 0.12; K -1.02 ± 0.22; E -0.432 ± 0.095; Y -0.602 ± 0.18; C -0.948 ± 0.21; F -0.657 ± 0.19; M -0.603 ± 0.13; W -1.01 ± 0.17; D -0.623 ± 0.15; G -0.659 ± 0.085; V -0.728 ± 0.097; H -0.874 ± 0.34; L -0.94 ± 0.13; S -0.646 ± 0.094
L66: P -0.588 ± 0.098; N -0.825 ± 0.24; R -0.706 ± 0.067; E -0.493 ± 0.085; D -1.44 ± 0.42; S -0.747 ± 0.09; I -0.461 ± 0.19; A -0.822 ± 0.12; V -0.864 ± 0.11; T -0.772 ± 0.14; F -0.461 ± 0.16; G -0.789 ± 0.076; Y -0.508 ± 0.14; M -0.664 ± 0.13; K -0.644 ± 0.11; H -0.475 ± 0.17; C -0.923 ± 0.19
G71: N -0.351 ± 0.086; I -0.249 ± 0.098; D -0.482 ± 0.11; F -0.725 ± 0.12; V -0.888 ± 0.13; H -0.281 ± 0.12; M -1.4 ± 0.48; Y -0.64 ± 0.11; A -0.782 ± 0.15; R -0.895 ± 0.15; Q -0.763 ± 0.38; T -0.919 ± 0.19; S -0.512 ± 0.087; C -0.957 ± 0.16; W -0.524 ± 0.21; L -0.538 ± 0.1
V78: I -0.139 ± 0.067; D -0.708 ± 0.13; G -0.558 ± 0.1; N -0.585 ± 0.1; M -0.19 ± 0.16; Y 0.102 ± 0.069; K -0.105 ± 0.12; A -0.836 ± 0.25; S -0.587 ± 0.091; Q -0.486 ± 0.21; F -0.162 ± 0.079; T -0.127 ± 0.084; L -0.398 ± 0.093; E -0.008 ± 0.099; C -0.131 ± 0.088; R -0.322 ± 0.1; W -0.228 ± 0.12
N70: R -0.249 ± 0.077; T -0.466 ± 0.11; S -0.568 ± 0.083; E -0.001 ± 0.1; K 0.002 ± 0.12; D 0.009 ± 0.065; W -0.634 ± 0.23; Q -0.341 ± 0.19; C -0.467 ± 0.097; P -0.628 ± 0.14; H -0.165 ± 0.08; M -0.374 ± 0.17; L -0.757 ± 0.13; F -0.449 ± 0.077; A -0.602 ± 0.12; V -0.593 ± 0.077; Y -0.915 ± 0.15
A64: L -0.904 ± 0.12; M -0.316 ± 0.08; F -0.786 ± 0.23; G -0.647 ± 0.067; Q -0.001 ± 0.075; W -0.672 ± 0.11; E -0.27 ± 0.077; I -0.414 ± 0.26; N -0.523 ± 0.18; R -0.359 ± 0.052; Y -0.894 ± 0.27; D -0.342 ± 0.14; C -0.346 ± 0.12; P -0.663 ± 0.12; S -0.376 ± 0.071; V -0.506 ± 0.068
L77: D -0.471 ± 0.1; F -0.855 ± 0.14; N -0.751 ± 0.12; M -0.395 ± 0.21; C -0.29 ± 0.081; R -0.903 ± 0.14; E -0.915 ± 0.24; V -0.064 ± 0.065; H -0.536 ± 0.18; Y -0.911 ± 0.14; A -1.11 ± 0.2
